# From paper doi:10.1101/411223 (bioRxiv, 2018)
# T1: Kap121p (S. cerevisiae, UniProt P32337 1-1089)
# T1 sequence (looked up): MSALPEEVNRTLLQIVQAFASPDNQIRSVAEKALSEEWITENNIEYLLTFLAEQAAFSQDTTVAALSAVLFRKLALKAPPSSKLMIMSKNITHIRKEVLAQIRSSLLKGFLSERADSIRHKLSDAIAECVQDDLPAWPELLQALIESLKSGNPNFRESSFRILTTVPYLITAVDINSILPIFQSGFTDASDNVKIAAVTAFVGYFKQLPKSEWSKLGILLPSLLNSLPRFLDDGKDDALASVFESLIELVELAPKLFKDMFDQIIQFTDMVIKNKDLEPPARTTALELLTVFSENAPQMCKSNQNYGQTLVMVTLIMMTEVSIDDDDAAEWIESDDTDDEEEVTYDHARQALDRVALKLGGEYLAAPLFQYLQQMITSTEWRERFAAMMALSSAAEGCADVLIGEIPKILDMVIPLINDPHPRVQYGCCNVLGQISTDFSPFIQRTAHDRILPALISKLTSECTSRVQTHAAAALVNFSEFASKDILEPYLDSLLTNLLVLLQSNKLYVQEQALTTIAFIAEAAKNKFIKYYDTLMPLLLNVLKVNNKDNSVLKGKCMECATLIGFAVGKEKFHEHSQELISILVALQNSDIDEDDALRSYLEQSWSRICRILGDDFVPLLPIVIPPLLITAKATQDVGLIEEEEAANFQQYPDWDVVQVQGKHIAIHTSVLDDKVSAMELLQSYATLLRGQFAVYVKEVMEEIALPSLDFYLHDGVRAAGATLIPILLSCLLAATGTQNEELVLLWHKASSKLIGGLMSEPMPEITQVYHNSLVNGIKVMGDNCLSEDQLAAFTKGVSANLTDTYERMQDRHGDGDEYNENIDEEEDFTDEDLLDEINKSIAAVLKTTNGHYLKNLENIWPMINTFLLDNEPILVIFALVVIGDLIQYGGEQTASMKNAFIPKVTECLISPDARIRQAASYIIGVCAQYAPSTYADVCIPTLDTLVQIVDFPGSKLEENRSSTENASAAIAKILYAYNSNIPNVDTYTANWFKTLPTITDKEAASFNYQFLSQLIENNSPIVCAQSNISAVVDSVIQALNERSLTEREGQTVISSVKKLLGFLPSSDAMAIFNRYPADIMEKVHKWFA
# T2: Kap114p (Δ899-956) (S. cerevisiae, UniProt P53067 1-1004, Δ899-956)
# T2 sequence (looked up): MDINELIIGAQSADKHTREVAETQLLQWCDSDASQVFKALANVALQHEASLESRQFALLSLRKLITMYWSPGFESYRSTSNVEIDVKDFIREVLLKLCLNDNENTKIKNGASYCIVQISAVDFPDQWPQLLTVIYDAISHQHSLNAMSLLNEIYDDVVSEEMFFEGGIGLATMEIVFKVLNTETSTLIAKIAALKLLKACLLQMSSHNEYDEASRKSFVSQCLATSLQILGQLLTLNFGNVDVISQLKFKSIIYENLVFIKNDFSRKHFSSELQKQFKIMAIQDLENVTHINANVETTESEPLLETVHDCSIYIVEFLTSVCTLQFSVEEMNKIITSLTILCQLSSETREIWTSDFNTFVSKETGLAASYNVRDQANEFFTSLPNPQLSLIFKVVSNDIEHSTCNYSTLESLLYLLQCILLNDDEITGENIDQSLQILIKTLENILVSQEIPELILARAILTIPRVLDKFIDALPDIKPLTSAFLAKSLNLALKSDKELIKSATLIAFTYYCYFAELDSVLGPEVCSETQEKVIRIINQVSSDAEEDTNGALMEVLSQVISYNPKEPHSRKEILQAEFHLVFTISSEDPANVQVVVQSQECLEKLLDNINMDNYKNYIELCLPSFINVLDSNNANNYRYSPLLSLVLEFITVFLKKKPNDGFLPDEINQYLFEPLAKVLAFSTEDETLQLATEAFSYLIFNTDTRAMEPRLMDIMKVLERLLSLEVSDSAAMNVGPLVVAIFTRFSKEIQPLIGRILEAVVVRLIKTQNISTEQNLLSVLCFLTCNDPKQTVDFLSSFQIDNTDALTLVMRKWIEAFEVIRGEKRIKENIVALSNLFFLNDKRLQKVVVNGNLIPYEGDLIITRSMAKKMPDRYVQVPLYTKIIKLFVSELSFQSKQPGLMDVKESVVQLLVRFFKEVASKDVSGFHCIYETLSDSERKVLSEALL
# Experiments:
# [1] = target: T1, Kap121p; experiment: ITC
# [2] = target: T2, Kap114p (Δ899-956); experiment: ITC
binder,measurement,setting,value
"yTBP (61-240) (domain or fragment, S. cerevisiae, UniProt P13393 61-240, looked up) SGIVPTLQNIVATVTLGCRLDLKTVALHARNAEYNPKRFAAVIMRIREPKTTALIFASGKMVVTGAKSEDDSKLASRKYARIIQKIGFAAKFTDFKIQNIVGSCDVKFPIRLEGLAFSHGTFSSYEPELFPGLIYRMVKPKIVLLIFVSGKIVLTGAKQREEIYQAFEAIYPVLSEFRKM",Kd,[1],~15 µM
same,binding result,[2],binds
